From PMC7280208, “Integral approach to biomacromolecular structure by analytical-ultracentrifugation and small-angle scattering” (Communications Biology, 2020)

Biological target: T1, PUB domain of peptide:N-glycanase (UniProt Q9JI78 1-119)
T1 construct: PUB domain of peptide:N-glycanase (PNGase); molecular weight 12.5 kDa as printed in the methods; PDB 2D5U is, as I recall, the mouse protein; The supplement's 1.34 mg/mL for 100 µM implies 13.4 kDa, not the 12.5 kDa of the methods; also called PNGase-PUB; component B; source: purified, dialyzed in 10 mM sodium phosphate buffer (pH 7.0) or PBS
T1 sequence: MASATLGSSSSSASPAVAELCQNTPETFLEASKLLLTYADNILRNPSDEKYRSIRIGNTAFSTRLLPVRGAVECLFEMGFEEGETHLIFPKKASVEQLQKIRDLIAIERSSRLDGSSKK
Assay: AUC; sedimentation equilibrium (SE-AUC) of the mixture in 10 mM sodium phosphate buffer (pH 7.0), 25 °C; [hHR23b-UBL] = [PNGase-PUB] = 100, 75 and 50 µM; 20000, 30000 and 35000 rpm; absorbance optics; global fit with the association-dissociation equilibrium model A + B = AB (eq. 7, SEDPHAT)
Conditions: both partners purified

Kd: 227 ± 28 µM
B1: ubiquitin-like domain of the proteasome shuttle factor hHR23b (domain or fragment)
chain: not shown
notes: ubiquitin-like (UBL) domain of hHR23b; molecular weight 9.5 kDa as printed; also called hHR23b-UBL; component A; source: purified, dialyzed in 10 mM sodium phosphate buffer (pH 7.0) or PBS
